The data set deals with the molecule itself. In words: SDS/PAGE with western blotting. Background: Immunoblotting shows a protein as a band on a membrane.

B1: Pho89–Myc-His6 (full-length recombinant Saccharomyces cerevisiae high-affinity phosphate transporter Pho89 fusion protein) (natural protein, S. cerevisiae, UniProt P38361 1-574, looked up)
chain: MALHQFDYIFAIAMLFAFLDAFNIGANDVANSFASSISSRSLKYWQAMVLAGLCEFLGAVLAGARVSGTIKNNIIDSSIFTNDPAVLMLTMTSALIGSSCWLTFATAIGMPVSTTHSIVGGTIGAGIAAGGANGVVWGWSGVSQIIASWFIAPILAGAIAAIVFSISRFSVLEVKSLERSIKNALLLVGVLVFATFSILTMLIVWKGSPNLHLDDLSETETAVSIVLTGAIASIVYFIFFYPFYRRKVLDQDWTLKLIDIFRGPSFYFKSTDDIPPMPEGHQLTIDYYEGRRNLGTTVSVEDEENKAASNSNDSVKNKEDIQEVDLVRTETEPETKLSTKQYWWSLLKQGPKKWPLLFWLVISHGWTQDVIHAQVNDRDMLSGDLKGMYERSKFYDNRVEYIYSVLQAITAATMSFAHGANDVANATGPLSAVYVIWKTNTIGAKSEVPVWVLAYGGVALVIGCWTYGYNIIKNLGNKMILQSPSRGFSIELAVAITTVMATQLGIPTSTTQIAVGGIVAVGLCNKDLKSVNWRMVAWCYSGWFLTLPIAGLIAGIINGIILNAPRFGVEYQMT
On to B1, for which the binding result is “binds”.

These data come from article PMC3633241 (The Febs Journal, 2013).
